T1: aorsin (Aspergillus oryzae, UniProt Q8NK92)
T1 sequence (Q8NK92 216-652): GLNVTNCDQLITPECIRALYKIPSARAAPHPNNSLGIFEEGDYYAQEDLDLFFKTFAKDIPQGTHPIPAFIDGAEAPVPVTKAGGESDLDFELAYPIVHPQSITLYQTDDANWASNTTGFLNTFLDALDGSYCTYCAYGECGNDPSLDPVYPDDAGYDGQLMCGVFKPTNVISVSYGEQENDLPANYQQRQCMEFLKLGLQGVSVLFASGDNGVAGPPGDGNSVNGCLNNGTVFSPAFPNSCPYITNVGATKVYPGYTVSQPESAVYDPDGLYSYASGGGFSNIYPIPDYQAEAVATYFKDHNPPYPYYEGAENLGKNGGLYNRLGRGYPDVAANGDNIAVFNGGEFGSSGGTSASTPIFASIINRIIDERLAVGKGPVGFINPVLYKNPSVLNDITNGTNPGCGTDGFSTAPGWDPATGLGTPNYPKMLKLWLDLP


Assays:
[1] = tested on: zein; experiment: Thermostability of Protease Pfu (Relative Activity, methods of Example 2); assay type: biochemical; details: pH 4.5
Method: Yeast clones on SC-glucose were inoculated to a well of a 96-well micro titre plate containing YPD+Zn medium and cultivated at 28° C. for 3 days. The culture supernatants were applied to a 96-well zein micro titer plate and incubated at at least 2 temperatures (ex. 60° C. and 65° C., 70° C. and 75° C., 70° C. and 80° C.) for more than 4 hours or overnight. The turbidity of zein in the plate was measured as A630 and the relative activity (higher/lower temperatures) was determined as an indicator of thermoactivity improvement. The clones with higher relative activity than the parental variant were selected and the sequence was determined.
The thermostability of the Pyrococcus furiosus protease (Pfu S) purchased from Takara Bio Inc, (Japan) was tested using the same methods as in Example 2.

[2] = target: T1, aorsin; experiment: PE001 protease stability, SDS-PAGE after protease treatment; assay type: biochemical
Method: (§1) 40 μl enzyme solutions (1 mg/ml) in 50 mM sodium acetate buffer, pH 4.5, were mixed with 1/10 volume of 1 mg/ml protease solutions such as aspergillopepsin I described in Biochem J. 1975 April; 147(1):45-53, or the commercially available product from Sigma and aorsin described in Biochemical journal [0264-6021] Ichishima yr: 2003 vol:371 iss:Pt 2 pg:541 and incubated at 4 or 32° C. overnight. As a control experiment, H2O was added to the sample instead of proteases. The samples were loaded on SDS-PAGE to see if the glucoamylases are cleaved by proteases.

[3] = tested on: aspergillopepsin I; experiment: as above; assay type: biochemical; details: for intact glucoamylase (ca. 70 kDa): aspergillopepsin I
Method: as §1

[4] = tested on: host proteases; experiment: Cleavage during cultivation, SDS-PAGE of culture supernatants; design: species or system Aspergillus niger
Method: Aspergillus transformant of the variant and the wild type Penicillium oxalicum glucoamylase were cultivated in 6-well MT plates containing 4× diluted YP-2% maltose medium supplemented with 10 mM sodium acetate buffer, pH4.5, at 32° C. for 1 week.
The culture supernatants were loaded on SDS-PAGE.

[5] = Glucoamylase activity (AGU) of variant compared to parent; assay type: biochemical; details: 37° C., pH 4.3, maltose 100 mM
Method: The Novo Glucoamylase Unit (AGU) is defined as the amount of enzyme, which hydrolyzes 1 micromole maltose per minute under the standard conditions 37° C., pH 4.3, substrate: maltose 23.2 mM, buffer: acetate 0.1 M, reaction time 5 minutes.
An autoanalyzer system may be used. Mutarotase is added to the glucose dehydrogenase reagent so that any alpha-D-glucose present is turned into beta-D-glucose. Glucose dehydrogenase reacts specifically with beta-D-glucose in the reaction mentioned above, forming NADH which is determined using a photometer at 340 nm as a measure of the original glucose concentration.
The glucoamylase activity measures as AGU as described above was checked for the purified enzymes of the wild type Penicillium oxalicum and the variant glucoamylase.
The Glucoamylase Unit (AGU) was defined as the amount of enzyme, which hydrolyzes 1 micromole maltose per minute under the standard conditions (37° C., pH 4.3, substrate: maltose 100 mM, buffer: acetate 0.1 M, reaction time 6 minutes).

[6] = Protein thermal unfolding analysis (TSA, Thermal shift assay); assay type: physicochemical
Method: Protein thermal unfolding of the T65A and Q327F variants, was monitored using Sypro Orange (In-vitrogen, S-6650) and was performed using a real-time PCR instrument (Applied Biosystems; Step-One-Plus).
In a 96-well plate, 25 microliter micropurified sample in 50 mM Acetate pH4,5 at approx. 100 microgram/ml was mixed (5:1) with Sypro Orange (resulting conc.=5×; stock solution from supplier=5000×). The plate was sealed with an optical PCR seal. The PCR instrument was set at a scan-rate of 76° C. pr. hr, starting at 25° C. and finishing at 96° C.
Protein thermal unfolding of the E501V+Y504T variant, was monitored using Sypro Orange (In-vitrogen, S-6650) and was performed using a real-time PCR instrument (Applied Biosystems; Step-One-Plus).
In a 96-well plate, 15 microliter purified sample in 50 mM Acetate pH4,5 at approx. 50 microgram/ml was mixed (1:1) with Sypro Orange (resulting conc.=5×; stock solution from supplier=5000×) with or without 200 ppm Acarbose (Sigma A8980). The plate was sealed with an optical PCR seal. The PCR instrument was set at a scan-rate of 76 degrees C. pr. hr, starting at 25° C. and finishing at 96° C.
Fluorescence was monitored every 20 seconds using in-built LED blue light for excitation and ROX-filter (610 nm, emission).
Tm-values were calculated as the maximum value of the first derivative (dF/dK) (ref.: Gregory et al; J Biomol Screen 2009 14: 700.)

[7] = Thermostability analysis by Differential Scanning Calorimetry (DSC); assay type: physicochemical
Method: . The thermal denaturation temperature, Td (° C.), was taken as the top of the denaturation peak (major endothermic peak) in thermograms (Cp vs. T) obtained after heating enzyme solutions in selected buffers (50 mM Sodium Acetate, pH 4.0 or 4.8) at a constant programmed heating rate of 200K/hr.
Sample- and reference-solutions (approximately 0.3 ml) were loaded into the calorimeter (reference: buffer without enzyme) from storage conditions at 10° C. and thermally pre-equilibrated for 10 minutes at 20° C. prior to DSC scan from 20° C. to 110° C. Denaturation temperatures were determined with an accuracy of approximately +/−1° C.

[8] = tested on: protease; details: cited from earlier work

Molecule | thermostability (Relative Activity) 80° C./70° C. [1] [%] | thermostability (Relative Activity) 90° C./70° C. [1] [%] | intact glucoamylase (ca. 70 kDa) ([2]; incubation 4° C. overnight) [%] | intact glucoamylase (ca. 70 kDa) ([2]; incubation 32° C. overnight) [%] | intact glucoamylase (ca. 70 kDa) ([3]; incubation 4° C. overnight) [%] | intact glucoamylase (ca. 70 kDa) ([3]; incubation 32° C. overnight) [%] | SDS-PAGE result after protease treatment ([3]; proteases (aspergillopepsin I, aorsin)) | cleavage by host proteases during fermentation [4] | intact glucoamylase (ca. 70 kDa) ([4]; culture supernatant, 32° C., 1 week) [%] | Relative specific activity AGU/mg [5] [%] | Tm (Deg. Celsius) +/−0.4 ([6]; Table 14a, 50 mM Acetate pH 4,5) [Deg. Celsius] | Tm (Deg. Celsius) +/−0.4 ([6]; Table 14b, Acarbose: + (200 ppm)) [Deg. Celsius] | Tm (Deg. Celsius) +/−0.4 ([6]; Table 14b, Acarbose: −) [Deg. Celsius] | DSC Td (° C.) @ pH 4.0 ([7]; pH 4.0, 50 mM Sodium Acetate) [°C] | DSC Td (° C.) @ pH 4.8 ([7]; pH 4.8, 50 mM Sodium Acetate) [°C] | sensitivity to protease degradation relative to the parent [8]
Pfu S: commercial Pyrococcus furiosus protease purchased from Takara Bio Inc, (Japan); SEQ ID NO: 13 (protein, listed as Pyrococcus furiosus, mat_peptide (1)..(412) Pyrococcus furiosus protease (Pfu)) AELEGLDESAAQVMATYVWNLGYDGSGITIGIIDTGIDASHPDLQGKVIGWVDFVNGRSYPYDDHGHGTHVASIAAGTGAASNGKYKGMAPGAKLAGIKVLGADGSGSISTIIKGVEWAVDNKDKYGIKVINLSLGSSQSSDGTDALSQAVNAAWDAGLVVVVAAGNSGPNKYTIGSPAAASKVITVGAVDKYDVITSFSSRGPTADGRLKPEVVAPGNWIIAARASGTSMGQPINDYYTAAPGTSMATPHVAGIAALLLQAHPSWTPDKVKTALIETADIVKPDEIADIAYGAGRVNAYKAINYDNYAKLVFTGYVANKGSQTHQFVISGASFVTATLYWDNANSDLDLYLYDPNGNQVDYSYTAYYGFEKVGYYNPTDGTWTIKVVSYSGSANYQVDVVSDGSLSQPGSS | 110 | 103 |  |  |  |  |  |  |  |  |  |  |  |  |  | 
PE001: Penicillium oxalicum glucoamylase SEQ ID NO: 14 with K79V substitution (protein, listed as Penicillium oxalicum, mat_peptide (1)..(595) mature Penicillium oxalicum glucoamylase sequence) RPDPKGGNLTPFIHKEGERSLQGILDNLGGRGKKTPGTAAGLFIASPNTENPNYYYTWTRDSALTAKCLIDLFEDSRAVFPIDRKYLETGIRDYKSSQAILQSVSNPSGTLKDGSGLGEPKFEIDLNPFSGAWGRPQRDGPALRATAMITYANYLISHGQKSDVSQVMWPIIANDLAYVGQYWNNTGFDLWEEVDGSSFFTIAVQHRALVEGSQLAKKLGKSCDACDSQPPQILCFLQSFWNGKYITSNINTQASRSGIDLDSVLGSIHTFDPEAACDDATFQPCSARALANHKVYVDSFRSIYKINAGLAEGSAANVGRYPEDVYQGGNPWYLATLGASELLYDALYQWDRLGKLEVSETSLSFFKDFDATVKIGSYSRNSKTYKKLTQSIKSYADGFIQLVQQYTPSNGSLAEQYDRNTAAPLSANDLTWSFASFLTATQRRDAVVPPSWGAKSANKVPTTCSASPVVGTYKAPTATFSSKTKCVPAKDIVPITFYLIENTYYGENVFMSGNITALGNWDAKKGFPLTANLYTQDQNLWFASVEFIPAGTPFEYKYYKVEPNGDITWEKGPNRVFVAPTGCPVQPHSNDVWQF |  |  | 100 | 100 | 100 | 100 | only showed one band corresponding to the intact molecule | yielded only intact molecule | 100 | 102 | 80.3 | 86.9 | 79.5 | 82.1 | 83.4 | reduced sensitivity to protease degradation relative to the parent

— patent US20170283834A1, “Processes for Producing A Fermentation Product Using A Fermenting Organism” (Novozymes A/S, priority 2014, published 2017)
